The values that follow come from patent publication US7897573B2, “Selective VPAC2 receptor peptide agonists” (priority 2005, dated 2011).

Data set [1] has as its target T1, Human VPAC1 Receptor (Homo sapiens, UniProt P32241).
T1 construct: expressed in transfected cells
T1 sequence (P32241 31-457): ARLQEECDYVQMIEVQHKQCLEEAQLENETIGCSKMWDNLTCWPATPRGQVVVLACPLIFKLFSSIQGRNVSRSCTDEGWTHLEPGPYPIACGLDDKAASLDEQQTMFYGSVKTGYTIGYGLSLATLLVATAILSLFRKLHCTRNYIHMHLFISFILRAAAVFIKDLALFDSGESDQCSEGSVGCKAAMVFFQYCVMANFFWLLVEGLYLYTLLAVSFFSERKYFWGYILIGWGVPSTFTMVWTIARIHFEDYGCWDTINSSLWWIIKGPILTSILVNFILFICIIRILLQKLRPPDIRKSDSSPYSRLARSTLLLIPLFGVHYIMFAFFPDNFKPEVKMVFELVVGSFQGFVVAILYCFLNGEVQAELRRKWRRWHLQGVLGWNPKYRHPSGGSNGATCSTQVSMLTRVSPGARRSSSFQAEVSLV
Description: Filter binding assay, 125I-labeled VIP, membranes of cells transiently transfected with human VPAC1. The following applies: 125I-labeled VIP tracer. The method, then: (§1) For this assay, the solutions and equipment include:
(§2) Presoak solution: 0.5% Polyethyleneamine in Aqua dest
(§3) Buffer for flushing filter plates: 25 mM HEPES pH 7.4
(§4) Blocking buffer: 25 mM HEPES pH 7.4; 0.2% protease free BSA
(§5) Assay buffer: 25 mM HEPES pH 7.4; 0.5% protease free BSA
(§6) Dilution and assay plate: PS-Microplate, U form
(§7) Filtration Plate Multiscreen FB Opaque Plate; […] Type B Glasfiber filter
(§8) In order to prepare the filter plates, the presoak solution is aspirated by vacuum filtration. The plates are flushed twice with 200 μL flush buffer. 200 μL blocking buffer is added to the filter plate. The filter plate is then incubated with 200 μL presoak solution for 1 hour at room temperature.
(§9) The assay plate is filled with 25 μL assay buffer, 25 μL membranes (2.5 μg) suspended in assay buffer, 25 μL agonist in assay buffer, and 25 μL tracer (about 40000 cpm) in assay buffer. The filled plate is incubated for 1 hour with shaking.
(§10) The transfer from assay plate to filter plate is conducted. The blocking buffer is aspirated by vacuum filtration and washed two times with flush buffer. 90 μL is transferred from the assay plate to the filter plate. The 90 μL transferred from assay plate is aspirated and washed three times with 200 μL flush buffer. The plastic support is removed. It is dried for 1 hour at 60° C. 30 μL Microscint is added. The count is performed.

Data set [2] addresses T2, Human PAC1 Receptor (Homo sapiens, UniProt P41586).
T2 construct: expressed in transfected cells
T2 sequence (P41586 21-468): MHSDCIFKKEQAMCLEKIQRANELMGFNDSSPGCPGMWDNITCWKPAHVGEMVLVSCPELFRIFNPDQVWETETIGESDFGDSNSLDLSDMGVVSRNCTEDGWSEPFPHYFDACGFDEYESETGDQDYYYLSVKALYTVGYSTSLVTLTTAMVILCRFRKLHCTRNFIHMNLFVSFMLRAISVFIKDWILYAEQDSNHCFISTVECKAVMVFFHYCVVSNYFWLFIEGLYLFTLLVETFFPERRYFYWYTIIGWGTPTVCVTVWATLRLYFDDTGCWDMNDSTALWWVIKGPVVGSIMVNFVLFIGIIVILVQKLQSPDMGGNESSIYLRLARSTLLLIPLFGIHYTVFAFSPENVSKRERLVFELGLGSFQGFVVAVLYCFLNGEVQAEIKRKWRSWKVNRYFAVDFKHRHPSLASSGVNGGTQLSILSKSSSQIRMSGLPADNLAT
Put plainly: Filter binding assay, 125I-labeled PACAP-27, membranes of cells transiently transfected with human PAC1. The following applies: 125I-labeled PACAP-27 tracer. The method, then: as §1, §2, §3, §4, §5, §6, §7, §8, §9, §10

Data set [3] can be described thus: Rat serum stability study (DiscoveRx cAMP read-out on CHO-VPAC2 cells). The conditions noted are these: EC50, 4° C./EC50, 37° C., values >100% may represent release of intact peptide from the PEG conjugate; for 24 h stab (%): 24 h in rat serum at 37° C.; for 72 h stab (%): 72 h in rat serum at 37° C. The method, then:
In order to determine the stability of VPAC2 receptor peptide agonists in rat serum, CHO-VPAC2 cells clone #6 (96 well plates/50,000 cells/well and 1 day culture), PBS 1× (Gibco), the peptides for the analysis in a 100 μM stock solution, rat serum from a sacrificed normal Wistar rat, aprotinin, and a DiscoveRx assay kit are obtained. The rat serum is stored at 4° C. until use and is used within two weeks.
The aliquot is stored with aprotinin at 4° C. The aliquot is stored without aprotinin at 37° C. The aliquots are incubated for 24 or 72 hours.
On Day 1, after incubation of the aliquots prepared on day 0 for 24 or 72 hours, an incubation buffer containing PBS+1.3 mM CaCl2, 1.2 mM MgCl2, 2 mM glucose, and 0.25 mM IBMX is prepared. A plate with 11 serial 5× dilutions of peptide for the 4° C. and 37° C. aliquot is prepared for each peptide studied. […] The plate(s) are washed with cells twice in incubation buffer. The plates are allowed to hold 50 μL incubation media per well for 15 minutes. 50 μL solution per well is transferred to the cells from the plate prepared with 11 serial 5× dilutions of peptide for the 4° C. and 37° C. aliquot for each peptide studied, using the maximal concentrations that are indicated by the primary screen, in duplicate. This step dilutes the peptide concentration by a factor of two. The cells are incubated at room temperature for 30 minutes. The supernatant is removed. 40 μL/well of the DiscoveRx antibody/extraction buffer is added. The cells are incubated on the shaker (300 rpm) for 1 hour. Normal procedure with the DiscoveRx kit is followed. cAMP standards are included in column 12. EC50 values are determined from the cAMP assay data.

The nature of data set [4]: Pharmacokinetic profiles of PEGylated peptides in Fisher 344 rats. The following applies: 100 μg agonist/kg, plasma RIA, mean N = 3. Format: in vivo, rat. The method, then:
Pharmacokinetic profiles of PEGylated peptides. Healthy Fisher 344 rats (3 animals per group) were injected with 100 μg agonist/kg (agonist amount based on peptide content and dissolved in PBS buffer). Blood samples were drawn 3, 12, 24, 48, 72, 96 and 168 hour post dosing and the peptide content in plasma was analysed by a radio-immunoassay (RIA) directed against the N-terminus of the peptide. PK parameters were then calculated using a model-independent method (WinNonlin Pro, Pharsight Corp., Mountain View, Calif., USA).

Consider “C6-HSDAYFTEQY(OMe)TOrnLRAibQLAAbuAibOrnYLQSIOrnK(CO(CH2)2SPEG20K)OrnGGPSSGAPPPC(PEG20K)-NH2 [Agonist P551]”, for which the IC50 in data set [1] and in data set [2] was over 25000 nM throughout.
As to “C6-HSDAVFTEQY(OMe)TOrnLRAibQLAAbuAibOrnYLQAibIOrnOrnC(PEG20K)GGPSSGAPPPC(PEG20K)-NH2 (HSDAVFTEQYTXLRXQLAXXXYLQXIXXCGGPSSGAPPPC; C6 acyl, non-natural residues, two PEG20K, C-terminal amide; Synthetic sequence PEGylated VPAC2 receptor agonist) [Agonist P580]”, the IC50 in data set [1] and in data set [2] was over 25000 nM in each case.
Substance “C6-HSDAVFTEQY(OMe)TOrnLRC(PEG40K)QVAAAibOrnYLQSIOrnOrnGGPSSGAPPPS-NH2 (HSDAVFTEQYTXLRCQVAAXXYLQSIXXGGPSSGAPPPS; N-terminal C6 acyl, PEG40K on Cys, C-terminal amide; Synthetic sequence PEGylated VPAC2 receptor agonist) [Agonist P483]” had an IC50 in data set [1] of over 25000 nM. The “24 h stab (%)” value in data set [3] was 22%.
Consider “C6-HSDAVFTEQY(OMe)TOrnLRAibQLAAbuAibOrnYLQSIOrnOrnC(PEG20K)GGPSSGAPPPC(PEG20K)-NH2 (HSDAVFTEQYTXLRXQLAXXXYLQSIXXCGGPSSGAPPPC; C6 acyl, two PEG20K, C-terminal amide; Synthetic sequence PEGylated VPAC2 receptor agonist) [Agonist P572]”, for which the IC50 in data set [1] and in data set [2] was over 25000 nM in each case.
Take “C6-HSDAVFTEQY(OMe)TOrnLRAibQLAAbuAibOrnYAibQSIOrnOrnGGPSSGAPPPC(PEG20K)C(PEG20K)-NH2 (HSDAVFTEQYTXLRXQLAXXXYXQSIXXGGPSSGAPPPCC; C6 acyl, two PEG20K, C-terminal amide; Synthetic sequence PEGylated VPAC2 receptor agonist) [Agonist P521]”: in data set [3], the “72 h stab (%)” value is 294%. Further, in data set [4], the AUC0-last is 7633 ng·h/mL, the Cl/F came out at 0.217 mL/min/kg, the Cmax is 233 ng/mL and the time to peak (Tmax) worked out at 12 h. In data set [4], this substance came in with a T½ of 19 h.
For the substance “C6-HSDAVFTEQY(OMe)TOrnLRAibQLAAbuAibOrnYLQSIOrnC(PEG40K)OrnGGPSSGAPPPS-NH2 (HSDAVFTEQYTXLRXQLAXXXYLQSIXCXGGPSSGAPPPS; C6 acyl, PEG40K on Cys, C-terminal amide; Synthetic sequence PEGylated VPAC2 receptor agonist) [Agonist P539]”, in data set [3], the “24 h stab (%)” value was 123%. Also, in data set [4], the AUC0-last worked out at 4013 ng·h/mL, the Cl/F came out at 0.417 mL/min/kg, the maximum concentration (Cmax) is recorded as 102 ng/mL and the time to peak (Tmax) came to 24 h. The same substance yielded a T½ in data set [4] of 15 h.
In the case of “C6-HSDAVFTEQY(OMe)TOrnLRAibQLAAbuAibOrnYLQAibIOrnC(PEG40K)OrnGGPSSGAPPPS-NH2 (HSDAVFTEQYTXLRXQLAXXXYLQXIXCXGGPSSGAPPPS; C6 acyl, PEG40K on Cys, C-terminal amide; Synthetic sequence PEGylated VPAC2 receptor agonist) [Agonist P537]”, the IC50 in data set [1] and in data set [2] was over 25000 nM throughout.
In data set [1], “C6-HSDAVFTEQY(OMe)TOrnLRAibQVAAAibK(CO(CH2)2SPEG20K)YLQSIOrnOrnGGPSSGAPPPS-NH2 (HSDAVFTEQYTXLRXQVAAXXYLQSIXXGGPSSGAPPPS; C6 acyl; PEG20K; non-natural residues; amide; Synthetic sequence PEGylated VPAC2 receptor peptide agonist) [Agonist P473]” had an IC50 of over 25000 nM. For the same substance, in data set [3], the “24 h stab (%)” value was determined as 86%.
On to “C6-HSDAVFTEQY(OMe)TRAibRAibQLAAAibOrnY(OMe)LQSIKAibOrnGGPSSGAPPPC(PEG40K)-NH2 (HSDAVFTEQYTRXRXQLAAXXYLQSIKXXGGPSSGAPPPC; C6 acyl; PEG40K; non-natural residues; amide; Synthetic sequence PEGylated VPAC2 receptor peptide agonist) [Agonist P417]”, for which the IC50 in data set [1] is over 25000 nM. Further, in data set [3], the “24 h stab (%)” value is on record as 265%.
For “C6-HSDAVFTEQY(OMe)TOrnLRAibQVAAK(CO(CH2)2SPEG40K)OrnYLQSIOrnOrnGGPSSGAPPPS-NH2 (HSDAVFTEQYTXLRXQVAAXXYLQSIXXGGPSSGAPPPS; N-terminal C6 acyl, PEG40K on Lys, C-terminal amide; Synthetic sequence PEGylated VPAC2 receptor agonist) [Agonist P475]”, the “24 h stab (%)” value in data set [3] worked out at 61%.
In the case of “C6-HSDAVFTEQY(OMe)TOrnLRAibQLAAbuAibOrnYLQAibIOrnC(PEG20K)OrnGGPSSGAPPPC(PEG20K)-NH2 (HSDAVFTEQYTXLRXQLAXXXYLQXIXCXGGPSSGAPPPC; C6 acyl, two PEG20K, C-terminal amide; Synthetic sequence PEGylated VPAC2 receptor agonist) [Agonist P553]”, the IC50 in data set [1] and in data set [2] was over 25000 nM each time.
On to “C6-HSDAVFTEQY(OMe)TOrnLRAibQLAAbuAibOrnY(OMe)LQSIOrnOrnGGPSSGAPPPC(PEG20K)C(PEG20K)-NH2 (HSDAVFTEQYTXLRXQLAXXXYLQSIXXGGPSSGAPPPCC; C6 acyl, non-natural residues, two PEG20K, C-terminal amide; Synthetic sequence PEGylated VPAC2 receptor agonist) [Agonist P582]”, for which the half-inhibitory concentration (IC50) in data set [1] and in data set [2] was over 25000 nM in each case.
For the substance “C6-HSDAVFTEQY(OMe)TOrnLRAibQLAAbuAibOrnYLQSIOrnOrnGGPSSGAPPPC(PEG20K)C(PEG20K)-NH2 (HSDAVFTEQYTXLRXQLAXXXYLQSIXXGGPSSGAPPPCC; C6 acyl, two PEG20K, C-terminal amide; Synthetic sequence PEGylated VPAC2 receptor agonist) [Agonist P523]”, in data set [3], the “72 h stab (%)” value is reported as 281%.
